# Data published in paper PMC11559006, “Rab6a enables BICD2/dynein-mediated trafficking of human papillomavirus from the trans-Golgi network during virus entry” (mBio, 2024).
# Ends that are not written are not given here.
# Target: T1, HA-tagged constitutively active (CA) Rab6a mutant (Q72L) (UniProt P20340 2-208, Q72L)
# T1 construct: Rab6a, amplified from EGFP-Rab6AQ72L (Addgene #49483); the forward primer puts ATG and the HA tag before the codons S-T-G-G (residue 2 onward), the reverse primer ends at the stop codon after ...GGCSC; The vector is called pCMV-FLAG; also called HA-tagged CA Rab6a; GTP-Rab6a; source: HEK293TT, transfected, purified (anti-HA agarose, eluted with HA peptide); not shown: HA, N-terminal, kept
# Experiment: pull-down; 5 µg biotinylated peptide incubated with purified protein (~20 nM FLAG-BICD2 or HA-tagged CA or DN Rab6a) in HN buffer (50 mM HEPES, 150 mM NaCl) with 0.1% Triton, 1 mM DTT, 2 h at 4°C; streptavidin magnetic beads; western blot for HA or FLAG
# Conditions: both partners purified
binder,measurement,value
"SPQYTIIADAGDFYLHPSYYMLRKRRKR (also: further groups not given here, HPV16 minor capsid protein L2, amino acids 434-461 of full-length HPV16 L2; also called L2 C; peptide 434–461; source: synthetic peptide, bought: GenScript or Promega) [biotinylated HPV16 L2 peptide, amino acids 434–461]",binding result,binds
